# Publication PMC9843812, “The ybcF Gene of Escherichia coli Encodes a Local Orphan Enzyme, Catabolic Carbamate Kinase” (Journal of Microbiology and Biotechnology, 2022)
# B1: YbcF (catabolic carbamate kinase, CK; proposed AllK) (Escherichia coli K-12) (protein)
# chain: MKTLVVALGGNALLQRGEALTAENQYRNIASAVPALARLARSYRLAIVHGNGPQVGLLALQNLAWKEVEPYPLDVLVAESQGMIGYMLAQSLSAQPQMPPVTTVLTRIEVSPDDPAFLQPEKFIGPVYQPEEQEALEAAYGWQMKRDGKYLRRVVASPQPRKILDSEAIELLLKEGHVVICSGGGGVPVTDDGAGSEAVIDKDLAAALLAEQINADGLVILTDADAVYENWGTPQQRAIRHATPDELAPFAKADGSMGPNVTAVSGYVRSRGKPAWIGALSRIEETLAGEAGTCISL
# Key:
# [1] = substrate: NC(=O)OP(=O)(O)O; assay: ATP formation measured by firefly luciferase luminescence, Michaelis-Menten / Lineweaver-Burk; assay type: biochemical, Escherichia coli; conditions: 2 mM ADP fixed, CP 0-3 mM, 30 mM MgCl2, 20 mM Tris-Cl pH 8, 28 °C, 60 min, 100 nM enzyme
# [2] = substrate: Nc1ncnc2c1ncn2[C@@H]1O[C@H](COP(=O)(O)OP(=O)(O)O)[C@@H](O)[C@H]1O; assay: as above; assay type: biochemical, Escherichia coli; conditions: 2 mM CP fixed, ADP 0-3 mM, 30 mM MgCl2, 20 mM Tris-Cl pH 8, 28 °C, 60 min, 100 nM enzyme
protein,measurement,setting,value
B1,Km,[1],470 µM
same,Km,[2],430 µM
